We go through 5 compounds from patent US20080095824A1, “Delivery of drugs from sustained release devices implanted in myocardial tissue or in the pericardial space” (Durect Corporation, priority 2001, published 2008).

Read-outs that look alike come from different tables or passages of the source.

For data set [1] the following is noted: rat, in vivo.
Procedure: (§1) Minipumps, filled with solutions of the substances to be tested, were primed in saline at 37° C. at least 4 hours, prior to connection to the catheter. Before installing pumps, pericardial fluid and orbital sinus blood was sampled, to serve as blanks. 7 days after pump installment, rats were sacrificed by exsanguination under pentobarbitone and pericardial fluid and blood collected. To check for possible loss of substances during infusion, remaining pump contents were analyzed. […] Doses were chosen to achieve concentrations that were readily measurable but without pharmacological effects (risk of bleeding in the case of heparin); similar doses were applied systemically and intrapericardially to be able to make a good comparison between the two routes of administration. Solvent was PBS, except for Texas Red FGF-2 and cortisol which were dissolved in a 10 mg/ml solution of RSA in PBS.
Data set [2] can be described thus: Time course of infusion into the pericardial space. It counts as in vivo, male Wistar rats. The conditions noted are these: for plasma concentration over time: intrapericardial infusion, 7-day period (bFGF: day 3 through day 7). The protocol: Substances were administered to the pericardial space of male Wistar rats weighing 250-300 grams by infusion via catheter for 1 week using an Alzet™ osmotic minipump at a volume rate of about 1 μl/hour. Blood and pericardial fluid samples were taken at various time points and the concentration of administered substances was measured fluorimetrically (for fluorescently labeled compounds) or by HPLC (for steroids). Concentration of fluorescently labeled compounds is expressed as fluorescent units/ml fluid.

A short description of a further data set: in vivo. The following applies: rat.
The nature of data set [3]: In vitro release from SAIB depot of Example 2A. It counts as physicochemical. The conditions noted are these: SAIB:benzyl benzoate:DL-PLG 83:12:5 depot, 500 μL in PBS pH 7.4, 37° C. The protocol: In this embodiment sotalol (an anti-arrhythmic) is delivered from a depot comprising sucrose acetate isobutyrate (SAIB). A formulation is prepared by mixing SAIB (Eastman Chemical Co.) and benzyl benzoate (Aldrich Chemical Co.) and ploy (DL-lactide-co-glycolide) (DL-PLG) or DL-poly(lactide) (DLPL) in a ratio of 83:12:5 (weight basis) and stirring until a homogeneous mixture is achieved. 10 μg of sotalol is added to 500 μL of the SAIB:benzyl benzoate:DLPLG formulation.
The final depot formulation is prepared by passing the mixture repeatedly between a pair of 5 ml syringes equipped with needles. Multiple passes are performed until a solution is achieved. The final concentration of sotalol in the depot is 0.02 μg/ul.
To determine, in vitro, the release of […] from the formulation, 500 μL of the depot is placed in 750 μL of dissolution buffer (PBS, 0.01 M, pH 7.4 with sodium azide) in a 1.5 mL Eppendorf microcentrifuge tube. The formulations are incubated at 37° C. with no agitation. The entire dissolution buffer is removed and replaced with fresh buffer at the desired sampling times (0.25, 0.5, 1, 2, 3, 4, 5, 6, 24 hr and daily thereafter). The samples are assayed for protein concentration by ELISA. The release rate of drug from this depot is about 0.3 μg per day.

Data set [4] is described as follows: Pharmacokinetics after intrapericardial or intra-arterial bolus injection. Type of data set: in vivo, rats. The following applies: mean ± SE. The procedure:
Immediately after implantation of the pericardial catheter, rats (still under anesthesia) were provided either with a catheter in the right femoral artery essentially as described (Smits et al., 1982). Rats were allowed to recover at least 2 days before experimentation> One hour before start of the experiment, 20 μl pericardial fluid was withdrawn using a Hamilton 1705 (Hamilton Bonaduz, Bonaduz, Switzerland) syringe and 50 μl of saline were injected into pericardial space to check the integrity of the pericardial catheter. Injections of volumes up to 0.2 ml were previously shown to be without hemodynamic effects (Veelken et al., 1990). Blood (0.15-0.25 ml) was collected in a syringe, containing a minimal volume of heparin (Organon Teknika, Boxtel, the Netherlands). Pericardial fluid was diluted 10 times in PBS and the blood was centrifuged for 20 minutes at 3500 rpm to obtain plasma. These samples served as blanks for later analyses. Experiments in which substances were applied intrapericardially were started by a 50 μl bolus injection of the test substances into pericardial space, followed by 20 μl saline to flush the catheter. If substances were applied systemically, experiments were started by a 100 μl bolus injection of the substances and subsequent injection of 300 μl saline into the femoral artery catheter. FITC rat IgG, (10 mg/ml), Texas Red RSA (10 mg/ml), and FITC heparin (1 mg/ml) were dissolved in PBS.
Pericardial fluid (20 μl) and blood samples were taken at various time points after injection. To substitute withdrawn pericardial fluid, 20 μl of saline was injected into pericardial space immediately after sampling. After every sample, the femoral artery catheter was flushed with 0.3 to 0.4 ml saline and filled with heparinized (5-10 IU/ml) saline. Plasma and pericardial fluid samples were stored at −20° C. until analysis.
Data were standardized for bodyweights. Pharmacokinetic analysis of the data for each animal was conducted using the GPAD (GraphPAD Software, San Diego, Calif.) software package. Data were fitted to the exponential equation Ct=A.e^−αt+B. e^−βt of one-(i.e. A is fixed at 0) and two compartment models. Fits were compared using F-tests and data were log transformed for model judgement.

Setting [5] is: 7-day intrapericardial infusion (bFGF: days 3 to 7).
The mark [6] stands for this setting: pericardial fluid after intrapericardial bolus injection.
Setting [7] is: plasma after intra-arterial bolus injection.

Procedure for in vivo: as §1

Take `C[C@]12CCC(=O)C=C1CC[C@@H]1[C@@H]2[C@@H](O)C[C@@]2(C)[C@H]1CC[C@]2(O)C(=O)CO` [Cortisol]: in data set [1] (7 days), the “Peric. Fluid concentration” value was found to be 1.59 ± 0.44 and the Plasma concentration is listed as 0.11 ± 0.03. The “ratio of concentration in pericardial fluid to concentration in plasma” value (from here on “ratio of concentration”) in data set [2] (setting [5]) is 12-50. Moreover, in data set [2], the “plasma concentration over time” value was “remained at a constant, low level”. For the same compound, the Kp in data set [2] (male, Wistar, rat, pericardial fluid and plasma, other: intrapericardial infusion, 7-day intrapericardial infusion (bFGF: days 3 to 7), read-out: ratio of concentration in pericardial fluid to concentration in plasma) fell in the range of 12 to 52. Besides, the Kp at 7 days in “in vivo” (Peric/plasma ratio) is 14.4 ± 0.55. The Kp at 7 days in the data set “in vivo” (concentrations in plasma lower than in pericardial fluid) was ≥ 7.

In the case of `CC(C)NCC(O)COc1cccc2ccccc12` (centres unmarked) [propranolol], the “release rate of drug from depot” value in data set [3] was “about 0.3 μg per day”.

Regarding Cortisol carbonic acid, in data set [1], the “clearance derived from steady-state concentration (infusion dose rate/steady state concentration)” value turned out to be 1.85 ± 0.211 mL/h/kg.

Consider “Texas Red FGF-2: Texas Red-labelled fibroblast growth factor-2 (basic FGF)”, for which the Peric/plasma ratio in data set [1] is on record as 6.85 ± 1.61 (4). Further, the Peric/plasma ratio in data set [1] (iv) is 1.01 ± 0.38 (2). In data set [4] (setting [6]), the “Cl (clearance, Dose/AUC)” value is 0.483 ± 0.0198 mL/h/kg; the “Vc (initial central compartment volume)” value is 0.000497 ± 7e-05 L/kg; the t1/2α was found to be 0.288 ± 0.0917 h; the t1/2β was 1.7 ± 0.317 h. Also, in data set [4] (setting [7]), the “Cl (clearance, Dose/AUC)” value turned out to be 5.05 ± 0.618 mL/h/kg; the “Vc (initial central compartment volume)” value is 0.03999 ± 0.000923 L/kg; the t1/2β worked out at 5.63 ± 0.517 h. Also, the “ratio of concentration” value in data set [2] (setting [5]) was 2-10. For the same compound, the “concentration in the pericardial fluid over time” value in data set [2] (between day 3 and day 7 after the start of infusion) was “rose gradually”. Further, the “plasma concentration over time” value in data set [2] is listed as “remained at a low level”.

Turning to “Texas Red RSA: Texas Red-labelled rat serum albumin”, in data set [1], the Peric/plasma ratio was 8.11 ± 2.60 (4). The Peric/plasma ratio in data set [1] (iv) is given as 0.98 ± 0.26 (4). Further, in data set [4] (setting [6]), the “Cl (clearance, Dose/AUC)” value worked out at 0.223 ± 0.054 mL/h/kg; the “Vc (initial central compartment volume)” value was 0.000892 ± 0.000207 L/kg; the t1/2α came out at 0.78 ± 0.233 h; the t1/2β turned out to be 9.82 ± 2.22 h. In addition, in data set [4] (setting [7]), the “Cl (clearance, Dose/AUC)” value came out at 2.43 ± 0.166 mL/h/kg; the “Vc (initial central compartment volume)” value amounted to 0.034734 ± 0.001761 L/kg; the t1/2α came to 1.48 ± 0.247 h; the t1/2β was 18.87 ± 5 h. In addition, the “ratio of concentration” value in data set [2] (setting [5]) is 9-15. Besides, in data set [2] (day 1 after the start of intrapericardial infusion), the “concentration in the pericardial fluid” value is listed as “about 375 FU/ml”. Moreover, the “concentration in the pericardial fluid” value in data set [2] (day 3, remained at this level through day 7) was “about 190 FU/ml”. In data set [2], the “plasma concentration over time” value is “remained at a constant, low level”.
